{"source": "the nanobody polyreactivity screen of Harvey et al. (2022)", "data": [{"test": "yeast display, Sf9 membrane polyspecificity reagent, FACS + sequencing; frameworks hold sequencing errors", "procedure,_shortened": "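Synthetic nanobody libraries on Saccharomyces cerevisiae BJ5465 were galactose-induced for 36–48 hours, stained 1 hour at 4 °C with 10% biotinylated, detergent-solubilized Sf9 membrane reagent and enriched on streptavidin microbeads. FACS then separated cells into low and high (top ~1%) gates by anti-HA (expression) and streptavidin (reagent binding) fluorescence. Genes were colony-PCR amplified, MiSeq 2 × 250 sequenced and CDR-length filtered. A clone's polyreactivity label is that of its gate of origin.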", "values": [{"sequence": "QVQLVASGGGLVQAGGSLRLSCAATGSIFYINTMGWYRQAPGKERELVAAINFSDGRTYYADSVMGRFTISRDNAKNTVYLQIHSLKPEDTAVYYCAADVYPSEYDYWGQGTQVTVSS", "polyreactivity (PSR sort gate)": "low polyreactivity"}, {"sequence": "QVQLVASGGGLVQSGGSLRLSCASSGSTFFRYAMGWYRHAPGKERELVAAISWSGGPTYYADSVKGRFTISRDNAKNTVFLQMNSLKPQDTAVYYCNAVRQGHILDYWGQGSQVTVSS", "polyreactivity (PSR sort gate)": "low polyreactivity"}, {"sequence": "QVQLVDSAGALVQAGGSLRLSCAASGRTFRYNAMGWYRQAPGKERELVAAITQSGGSTYYADSVKGRFTISRDNAKNTVYLQMNSQKPEDTAVYYCAKVRERINYDYWGQGTQVTVSS", "polyreactivity (PSR sort gate)": "low polyreactivity"}, {"sequence": "QVQLVDSAGCLVQAGGSLRLSCAASGRIFVYYVMGWYRQAPGKERELVASITFRGSRTYYADSVKGRFTISRDYAKNTVYLQMISLKPEDTAVYYCNADVWASGSRGDGYWGQGTQVTVAS", "polyreactivity (PSR sort gate)": "low polyreactivity"}, {"sequence": "QVQLVDSAGCLVQAGGTLRLSGSASGSIFDAYAMGWYRQAPGKERELVASITSGGRTTYADSVKGRFTISRDNALNTVYLQMNSLKPEDTAVYYCAALRPGPRDDYWGQGSQVTVSS", "polyreactivity (PSR sort gate)": "high polyreactivity"}, {"sequence": "QVQLVDSCGGLVQAGGSLRLSCHASGLTFFANAMGWYRQEHGKERELVAAITRRGGSTYYADSVKGRFTNSRDNAKNTVYLQMNSLKPEDTAVYYCAAEPRSVPAQYRSGDYWGQGTQVTVSS", "polyreactivity (PSR sort gate)": "high polyreactivity"}, {"sequence": "QVQLVDSGGALVQAGGSLRLSCAASGRTFRPNAMGWYRQAPGKERELVAVISWRGGRTYYADYVKGRFTISRDIAKNTVYLQMNSLKPEDTAVYYCGARVYLSGYGYNYWGQGTHVTVSS", "polyreactivity (PSR sort gate)": "high polyreactivity"}, {"sequence": "QVQLVDSGGAVVQAGGSLRLSCAASGYTFYRYAMGWYRQAPGKERELVAAMSRRGTRTYYADSVKGRFTISRDNAKNTVYLQMNSLKPEDTAVYFCNARRVRDVWWQLKRGDYWGQATQVTVSS", "polyreactivity (PSR sort gate)": "high polyreactivity"}, {"sequence": "QVQLVDSGGGIVQAGGSLRLSCAASGFIIAHYAMGWYRHAPGKERELVAAISWNGGRTYYADSVKGRFTISRDNAKNSVFFQRISLKPEDTAVYYCAADNRGTTVYYRNYYWGQGTQVTVSS", "polyreactivity (PSR sort gate)": "high polyreactivity"}, {"sequence": "QVQLVDSGGGLGQAGGSLRLSCAASGIIISGYAMGWYRQAPGKERELVASIRSGSNTYYADSVKGRFTISRDNAKNTVYLQKNSLNPEDTAVYYCAARVVPATFRFIRYPNTYYYWGQGSQVTVSS", "polyreactivity (PSR sort gate)": "low polyreactivity"}, {"sequence": "QVQLVDSGGGLVQAAGSLRLSCAASGRIFYYNAKGCYRQAPVKERELVAAITRSGGSTYYADSVKGRFTSSRDNAKHTVYLQMNSLKPEDTAVYYCAKPDRTGWLDGDYWGQGTQVTVSS", "polyreactivity (PSR sort gate)": "low polyreactivity"}, {"sequence": "QVQLVDSGGGLVQAGGILRLSCPASGLIIRKNAMGWYRQAPGKERELVAAISYNGASTYYADSVKGRFTISRDNAKNTVYLQMNSLKPEDTAVYYCAAYAGYSDQARYYYWGQGTQVTVSS", "polyreactivity (PSR sort gate)": "high polyreactivity"}, {"sequence": "QVQLVDSGGGLVQAGGSHRLSCAASGFTFPYNAMGWYRQAPGKERELVAANSSTGGITYYADSVKGRFTISRDNAKNTVYLQMNSLKPEDTAVYYCGWYDYWGQGTQVTVSS", "polyreactivity (PSR sort gate)": "low polyreactivity"}, {"sequence": "QVQLVDSGGGLVQAGGSHRLSCAASGSIFPRYAMGWYRQAPGKERELVAAITRSGGSTYADSVKGRFTISRDNAKNTVYLQMNSLKPEDTAVYYCNGKVYPWGYYTSWRTVSPYDYWGQGTQVTVSS", "polyreactivity (PSR sort gate)": "high polyreactivity"}, {"sequence": "QVQLVDSGGGLVQAGGSLLLSCAASGSISYQNAMGWYRQAPGKERELVAANSGDGDSTYYADSVKGRFTISRDNAKNTVYLQMNRLKPEDTAVYYCAAEPNVYFSVFVLFTSDYWGQGTLVTVSS", "polyreactivity (PSR sort gate)": "low polyreactivity"}, {"sequence": "QVQLVDSGGGLVQAGGSLLLSCSASGSIFFSYAMGLYRQAPGKEREFVAAINSDDASTYADSVKGRFTISRDNAKNTVYLQMNSLKPEDTAVYYCAASFLWSWYDYWGQGTQVTVSS", "polyreactivity (PSR sort gate)": "low polyreactivity"}, {"sequence": "QVQLVDSGGGLVQAGGSLPLSCAASGSIFDDYAMGWNRKAPGKERELVAAISGGVSTNYADSVKGRFTISRDNAKKTDYLQINSLKPEDTAVYYCNADYARAYIHEYWGQGTQVTVSS", "polyreactivity (PSR sort gate)": "low polyreactivity"}, {"sequence": "QVQLVDSGGGLVQAGGSLRISCAASGSIFPPYAMGWSRQAPGKERELVAAITYSGVRTYYADSVKGRFTISRDNAKNTVYLQMNSLKPEDTAVYYCAAVYRRGIGYPFGYWGQGTQVSVSS", "polyreactivity (PSR sort gate)": "high polyreactivity"}, {"sequence": "QVQLVDSGGGLVQAGGSLRLICAASGRIFIYNAMGWYRQAPGKERELVAAITRGGNTNYADSVKGRFTISRDNAKNTVYLQMNSLKPEDTAVYYCAAAIRYGSRHRGYWGQGTQVTVSS", "polyreactivity (PSR sort gate)": "low polyreactivity"}, {"sequence": "QVQLVDSGGGLVQAGGSLRLICAASGSTLGQYAMGWYRQAPGKERELVAAITARTGRTYYADSVKGRFTISRDNAKNTVYLQMNSMKPEDTAVYYCASVTFSYQDYYWGQGTQVTVSS", "polyreactivity (PSR sort gate)": "high polyreactivity"}, {"sequence": "QVQLVDSGGGLVQAGGSLRLICPASGSIFSTYAMGWYRQAPGKERELLAAINRGTSTNYADSVKGRFTISRDNAKNTVYLQMNCLKPEDTAVYYCAAYYRGRYGPRRSEYWGQGTQVTVSS", "polyreactivity (PSR sort gate)": "high polyreactivity"}, {"sequence": "QVQLVDSGGGLVQAGGSLRLSCAASAFIFTRYAMGWYRQAPGKERELVAAISWIGTSTYYADSVKGRFTISRDNAKNTVYLQMNSLKPEDTAVYYCAKRSTSQSLQGVYWGLGTQVTVSS", "polyreactivity (PSR sort gate)": "high polyreactivity"}, {"sequence": "QVQLVDSGGGLVQAGGSLRLSCAASGFIFKYYAMGWYRQEPGKERELVAAITIGGSTNYADSVKGRFTISRDNAKNTVYLQMNSLTPEDTAVYSCAADVQERYHRAWYDYWGQGTQVTVSS", "polyreactivity (PSR sort gate)": "low polyreactivity"}, {"sequence": "QVQLVDSGGGLVQAGGSLRLSCAASGFIFQANAMGWYRQAPGKERELVAAIDDGDSTYADSVKGRFTISRDNAKNTVYLQMNSLKPEDTAVYYCATRRNRSYDYWGQGTLVTVSS", "polyreactivity (PSR sort gate)": "low polyreactivity"}, {"sequence": "QVQLVDSGGGLVQAGGSLRLSCAASGFIFSSYAMVWYRQAPGKERELVAAISRSGGYTYYADSVKGRFTISRDNAKNTVYFQMNSLNAEDTAVYYCATRSYMPGVRRGYDYWGKGTQVTVSS", "polyreactivity (PSR sort gate)": "high polyreactivity"}, {"sequence": "QVQLVDSGGGLVQAGGSLRLSCAASGFILSRYTMGWYRQAPGKERELVATISSGGRTYYADSVKGRFTISRDNAKNTVYLQMNSLKPEDTAVYYCAAAYTYWRISGNRYLYDYWGQGTQVTVSS", "polyreactivity (PSR sort gate)": "high polyreactivity"}, {"sequence": "QVQLVDSGGGLVQAGGSLRLSCAASGFNFVFNAMGWYRQAPGKERELVAAINGGDITNYADSVKGRFTISRDNAKNTVYLQMNSLKPEDTAVYYCAADGEYSLWTGYDYDYWGQGTQVTVSS", "polyreactivity (PSR sort gate)": "low polyreactivity"}, {"sequence": "QVQLVDSGGGLVQAGGSLRLSCAASGFTFSAYAMGWYRQAPGKERELVAAISWSGSRTYYADSVKGRFTISRDNAKNTVYLQMNSLKPEDTAVYYCAKEPYDTFGFYEYDYWGQGTQVTVSS", "polyreactivity (PSR sort gate)": "low polyreactivity"}, {"sequence": "QVQLVDSGGGLVQAGGSLRLSCAASGFTFSTNAMGWYRQAPGKERELVAGITSSGGNTYYADSVKGRFTISRDNAKNTVYLQMNSLKPEDTAVYYCAKRRNYVAYDYWGQGTQVTVSS", "polyreactivity (PSR sort gate)": "high polyreactivity"}, {"sequence": "QVQLVDSGGGLVQAGGSLRLSCAASGFTFVYYVMGWYRQAPGKERQLVAAINAGGGSTYYADSVKGRFTISRDIAKYTVYLQMNSLKPEDTAVYYCNARVRVRLGRNWSSYYYWGQGTQVTVSS", "polyreactivity (PSR sort gate)": "high polyreactivity"}, {"sequence": "QVQLVDSGGGLVQAGGSLRLSCAASGFTFYLNTMGWYRQAPGKERELVAAIDLSDGTTYYADSVKGRFTISRDNAKNTVYLQMNSLKPEDTAVYYCAAESYEEWTSSGLDWTDDYWGQGTQVTVSS", "polyreactivity (PSR sort gate)": "high polyreactivity"}, {"sequence": "QVQLVDSGGGLVQAGGSLRLSCAASGGIFGYGMGWYRQAPGKERELVAAITRSGGSTSYADSVKGRFTISRDNAKYTVYLQMNSVKPEDTAVYFCASRTRYSRYKSGYWGQGTQVTVSS", "polyreactivity (PSR sort gate)": "high polyreactivity"}, {"sequence": "QVQLVDSGGGLVQAGGSLRLSCAASGGIFRQNVMGWYRQAPGKERELVAAISRRGGITYYAEAVKGRFTISRDNAKNTVYLQMNSLKPEDTAVYYCNKKPTWDYSYWGQGTQVTVSS", "polyreactivity (PSR sort gate)": "high polyreactivity"}, {"sequence": "QVQLVDSGGGLVQAGGSLRLSCAASGIIFHFNDLGLYIQAPGKERELVAAIDSTGSTNYSDSVKGRYTISRDNAKITVYLQLNRVKPEDTAVYNCAVLNHRVDAVLTRYYYWGQGTKVTVSS", "polyreactivity (PSR sort gate)": "low polyreactivity"}, {"sequence": "QVQLVDSGGGLVQAGGSLRLSCAASGIIFRAYAMGWSRAAPGKERELVAAISRRGSTTYYADSVKGRFTISRDNAKNTVYLQMNSLKPEDTAVYFCAADYAGPTGFDYWGQGTQVTVSS", "polyreactivity (PSR sort gate)": "high polyreactivity"}, {"sequence": "QVQLVDSGGGLVQAGGSLRLSCAASGIIFSVYAMGWYRQAPGKERELVAAITYSGGSTYYADSVKGRFTISRDNAKNTVYLQMNSLKPEDTAVYYCNAYRYNALPWRYVGYDYWGQGTQVTVSS", "polyreactivity (PSR sort gate)": "low polyreactivity"}, {"sequence": "QVQLVDSGGGLVQAGGSLRLSCAASGIIIKLYAMGWYRQAPGKEREFVATITKTGGRTYYADSVKGRFTISRDNAKNTVYLQMNSLKPEDTAVYYCAARRVNGKMYYWGQGTQVTVSS", "polyreactivity (PSR sort gate)": "high polyreactivity"}, {"sequence": "QVQLVDSGGGLVQAGGSLRLSCAASGINFVWNVMGWYRQAPGKERELVADITSGGRTHYADSVKGRFTISRDNAKNTVYVQMNSLKPDDTAVYYCAARKYWRYQNYDYWGQGTQVTVSS", "polyreactivity (PSR sort gate)": "low polyreactivity"}, {"sequence": "QVQLVDSGGGLVQAGGSLRLSCAASGITFNLYAMGWYRQAPGKERELVAAISNVGSTKYADSVKGRFTISRDNAKNTVYLQMTSLKPEDTAVYYCAADWDRYPDYDYWGQGTQVTVSS", "polyreactivity (PSR sort gate)": "low polyreactivity"}, {"sequence": "QVQLVDSGGGLVQAGGSLRLSCAASGITFVFYAMGWYRQAPGKERELVAAISSSGGSTYYADSVKGRFTISRDNAKNTVYLQMNSLKPEDTAVYYCNAKVFSYQGAVRYDYWGQGTQVTVSS", "polyreactivity (PSR sort gate)": "high polyreactivity"}, {"sequence": "QVQLVDSGGGLVQAGGSLRLSCAASGNTFVTYTMGWYRQAPGKERELVADISSGGSTYYADSVKGRFTISRDNAKNTVYLQMYSLKPEDTAVYYCAVLQAVFRSYYIYHRYYWGQGTKVTVSS", "polyreactivity (PSR sort gate)": "high polyreactivity"}, {"sequence": "QVQLVDSGGGLVQAGGSLRLSCAASGRIFGPYAMVWYRQAPGKERELVASISYSGGSTYYADSVKGRFTISRDNAKNTVYLQMNSLKPEDTAVYYCAKGGYWGGYNYWGQGTQVTVSS", "polyreactivity (PSR sort gate)": "low polyreactivity"}, {"sequence": "QVQLVDSGGGLVQAGGSLRLSCAASGRIFLYNGMGWYRQAPGKERELVAGIITGGNTNYADSVKGRFTISRDNAKNTVYLQMNSLKPEDTAVYYCAAEVIVYGWSPDYDYWGQGTQVTLSS", "polyreactivity (PSR sort gate)": "low polyreactivity"}]}]}
